Entries after “also recorded” stand apart in the source; their conditions may differ.
Key:
[1] = tested on: B16-F0 mouse melanoma cells; assay: Cytotoxicity (MTT assay) in B16-F0 cells; assay type: cell-based; details: two transfections at various concentrations, DharmaFECT, MTT three days after first transfection
Method: (§1) B16-F0 and B16-F10 mouse melanoma cells lines are originated from the same parental cell line but they have different metastatic ability. B16-F0 cell line has no or marginal metastatic ability but B16-F10 cell line has potent metastatic ability. B16-F0 and B16-F10 cells (1×10^4) were treated with RIG-I agonist ICR4-liposome complex (0.6 μg/ml). After overnight incubation, cytotoxicity and IFN-β production by the cells were measured using MTT assay and ELISA, respectively. […] Tumor suppressor proteins, such as programmed cell death 4 (PDCD4) and phosphatase and tensin homolog (PTEN), and pre-miR-21 levels in B16-F0 and B16-F10 cells were measured using real-time qPCR. […] It was hypothisized that miR-21 would interfere with antitumor effects of RIG-I agonists in B16-F10 melanoma cells.
B16-F0 mouse melanoma cells were transfected with ICR4, RigantmiR-21, mutant RigantmiR-21, or anti-miR-21 at various concentrations using DharmaFECT (DF). After overnight incubation, the cells were replenished with fresh culture media, followed by another transfection with the same dose of RNAs. Three days after the first transfection, cytotoxicity levels were measured using MTT assay.

[2] = tested on: B16-F0 mouse melanoma cells; assay: IFN-β production (ELISA) by B16-F0 cells; assay type: cell-based; details: 12.5 nM, DharmaFECT, one day after first and second transfection, ELISA
Method: as §1
B16-F0 mouse melanoma cells were transfected with ICR4, RigantmiR-21, mutant RigantmiR-21, or anti-miR-21 at 12.5 nM using DharmaFECT (DF). After overnight incubation, the cells were replenished with fresh culture media, followed by another transfection with the same dose of RNAs. One day after the first and second transfection, IFN-β production by these cells were determined using ELSIA.
B16-F0 mouse melanoma cells or bone marrow-derived dendritic cells (BM-DCs) were transfected once (x1) or twice (x2) with a complex of polyI:C (pIC) (0.6 μg/ml) and transfection agent jet-PEI. IFN-β production by the cells one day after each transfection was determined using ELISA.

[3] = tested on: B16-F10 mouse melanoma cells; assay: IFN-β production (ELISA) by B16-F10 cells; assay type: cell-based; details: transfected once or twice, 0.6 μg/ml, DharmaFECT, ELISA
Method: as §1
(§2) To improve therapeutic effects of RIG-I agonists in B16-F10 cells, we designed and generated a novel RIG-I-activating RNA molecule (named RigantmiR-21) that is composed of a RIG-I-activating RNA structure (ICR4: 5′ppp-containg double stem-loop RNA) and a complementary sequence to mature miR-21. B16-F10 melanoma cells were transfected once or twice with RigantmiR-21, mutant RigantmiR-21, anti-miR-21, or ICR4 (0.6 μg/ml) using liposomal transfection agent DharmaFECT (DF). The expression of miR-21 target genes was determined using qPCR. IFN-β production was determined using ELISA. […] Anti-miR-21, ICR4, and RigantmiR-21 RNAs were complexed with in vivo transfection agent jet-PEI. Jet-PEI alone or RNA-jet-PEI complexes (25 μg) were injected thrice intratumorally into B16-F10 melanoma-bearing immunocompetent mice. (n=6).
Additionally, conjugation of anti-miR-21 improved the ability of other types of RIG-I agonists, such as ICR2 and ICR2AS^4 (sequences shown in FIG. 6A) to induce IFN-β production by cancer cells.

miR-21 = assay: Expression of premiR-21 and miR-21 target genes (qPCR) in B16-F10 melanoma cells; assay type: cell-based, mouse; details: 0.6 μg/ml, DharmaFECT
Method: as §2

B16-F10 melanoma = assay: Survival of B16-F10 melanoma-bearing immunocompetent mice after intratumoral RNA-jet-PEI injections; assay type: in vivo, mouse; details: RNA-jet-PEI complexes 25 μg injected thrice intratumorally
Method: as §2

[4] = tested on: KPC-4839 (mouse pancreatic ductal adenocarcinoma); assay: IFN-β production and cell death in KPC-4839 cells; assay type: cell-based; details: 0.6 μg/ml, DharmaFECT
Method: (§3) The antitumor effects of RigantmiR-21 are not limited to melanoma cells. KPC-4839 (mouse pancreatic ductal adenocarcinoma), PANC-02 (mouse pancreatic adenocarcinoma) and mouse sarcoma cell line cells were transfected with indicated ICR4, RigantmiR-21, mutant RigantmiR-21, or anti-miR-21 (0.6 μg/ml) using DharmaFECT (DF). After overnight incubation, IFN-β production by these cells was determined using ELSIA. (n=3). As shown in FIGS. 4A-4C, RigantmiR-21 treatments induced cell death and IFN-β production by mouse pancreatic, adenocarcinoma, and sarcoma cells that are also resistant to RIG-I agonist ICR4.

[5] = tested on: PANC-02 (mouse pancreatic adenocarcinoma); assay: IFN-β production and cell death in PANC-02 cells; assay type: cell-based; details: 0.6 μg/ml, DharmaFECT
Method: as §3

[6] = tested on: mouse sarcoma cell line cells; assay: IFN-β production and cell death in mouse sarcoma cell line; assay type: cell-based; details: 0.6 μg/ml, DharmaFECT
Method: as §3

[7] = tested on: mouse pancreatic, adenocarcinoma, and sarcoma cells; assay: Antitumor activities in mouse pancreatic cancer and sarcoma cells (overall statements); assay type: cell-based
Method: as §3

Mouse macrophage cells = assay: IFN-β production by macrophages re-treated with PRR agonists with or without 1-MT and CH223191; assay type: cell-based; details: re-treatment with the same agonist in presence of mixture of 1-MT and CH223191; FIG. 10
Method: Mouse macrophage cells were treated with MDA5 agonists (pIC-HMW and pIC-LMW), RIG-I agonists (ICR4 and RigantmiR-21), and STING agonists (2′3′-cGAMP and c-di-GMP). After overnight incubation, the cells were replenished with fresh culture media and treated with the same agonists in the presence or absence of a mixture of 1-MT and CH223191. (n=3).

[8] = tested on: 4T1 mouse breast cancer cells, B16-F10 mouse melanoma cells, 403688 mouse sarcoma cells, and WM266.4 human melanoma cells; assay: IFN-β production (ELISA) by different cancer cells after first and second transfection with RIG-I agonists; assay type: cell-based; details: DharmaFECT, one day after first and second transfection; FIG. 11
Method: 4T1 mouse breast cancer cells, B16-F10 mouse melanoma cells, 403688 mouse sarcoma cells, and WM266.4 human melanoma cells were transfected with indicated RIG-I agonists using liposomal transfection agent DharmaFECT (DF). After overnight incubation, the cells was replenished with fresh culture media, followed by another transfection with the same RIG-I agonists. One day after first and second transfection IFN-β production by these cells were determined using ELSIA.

402230 sarcoma = assay: Survival of 402230 sarcoma-bearing immunocompetent mice; assay type: in vivo, mouse; details: RigantmiR-21 1 mg/kg with jetPEI intratumorally once daily for three days, anti-PD-1 intraperitoneally twice at 7-day interval
Method: Murine sarcoma 402230 cell line was treated single with RigantmiR-21 ([…]) in complex with liposome. IFN-β production 24 h after treatment (FIG. 12A) and cytotoxicity 72 h after treatment (FIG. 12B) were measured using ELISA and MTT assay, respectively. N=3. 402230 sarcoma-bearing immunocompetent mice were injected intratumorally once daily for three days with RigantmiR-21 (1 mg/kg) in complex with in vivo transfection agent jetPEI, N=5. (FIG. 12C). Sarcoma-bearing mice were also injected intraperitoneally twice at 7-day interval with anti-PD-1. jetPEI alone and jetPEI with isotype control antibody were used as control.

B1: RigantmiR-21: nuclease-resistant RNA composed of RIG-I-activating structure ICR4 and a complementary sequence to mature miR-21; SEQ ID NO: 2 (nucleic acid)
chain: GGAUGCGGUACCUGACAGCAUCUUGAAAUAAGGACUGAUGCUCAACAUCAGUCUGAUAAGCUA
modifications: nuclease-resistant RNA, modifications not given here
cytotoxic effects after repeated treatments [1]: gradually augmented; also recorded: significantly increased
IFN-β production after first and second transfection [2]: incremental; also recorded: significantly increased
IFN-β production after first and second transfection ([2]; listed as RignatmiR-21): gradually increase
IFN-β production compared to ICR4 and mutant RigantmiR-21 [3]: significantly increased
expression of premiR-21 (miR-21): inhibited
miR-21 target gene (PTEN) expression (miR-21): upregulated
survival compared to repeated injections with ICR4 or anti-miR-21 (B16-F10 melanoma): significantly improved the survival
cell death [4]: induced
IFN-β production ([4]; overnight, ELISA): induced
cell death [5]: induced
IFN-β production ([5]; overnight, ELISA): induced
cell death [6]: induced
IFN-β production ([6]; overnight, ELISA): induced
antitumor activities relative to MDA5 agonist polyI:C ([7]; FIGS. 4A-4C): comparable
IFN-β production by mouse pancreatic cancer cells and sarcoma ([7]; figure legend FIGS. 4A-4C): improves
IFN-β production with IDO inhibitor and AHR inhibitor co-treatment compared to PRR agonist alone (Mouse macrophage cells): enhanced
IFN-β production by different cancer cells [8]: differentially induce
survival, RigantmiR-21 and anti-PD-1 antibody compared to RigantmiR-21 alone (402230 sarcoma): significantly improved survival
survival, RigantmiR-21 and anti-PD-1 antibody compared to RigantmiR-21 alone (402230 sarcoma; listed as RignatmiR-21): synergizes

From patent US20220168331A1, “PRR-Activating and MicroRNA-Inhibiting Molecules and Methods of Using Same” (Duke University, priority 2019, published 2022)
